Results on eight substances are retold here after patent publication US12295987B2, “Method of using a GIP/GLP1 co-agonist for diabetes” (Eli Lilly and Company, priority 2018, dated 2025).

Numbered stars: 1 amine (or outer) side, 2 acyl side, 3 side chain; on linkers, the order of the positions; unused ones are H or OH. Square brackets hold non-standard residues; d marks the D form. Side chains are listed from the residue outwards. Ends that are not written are not given here. * marks the point of attachment. C20 diacid = O=C(O)CCCCCCCCCCCCCCCCCCC(=O)*; γGlu = O=C(O)[C@H](CCC(=O)[*:2])N[*:1]; αMeL = CC(C)C[C@](C)(N)C(=O)O; αMeK = C[C@](N)(CCCCN)C(=O)O; AEEA = NCCOCCOCC(=O)O; Aib = CC(C)(N)C(=O)O

The assay concerns the target T1, human gastric inhibitory peptide receptor (hGIPR) (Homo sapiens, UniProt P48546).
T1 construct: expressed in transfected cells; host or cells: HEK293
T1 sequence (P48546 22-466): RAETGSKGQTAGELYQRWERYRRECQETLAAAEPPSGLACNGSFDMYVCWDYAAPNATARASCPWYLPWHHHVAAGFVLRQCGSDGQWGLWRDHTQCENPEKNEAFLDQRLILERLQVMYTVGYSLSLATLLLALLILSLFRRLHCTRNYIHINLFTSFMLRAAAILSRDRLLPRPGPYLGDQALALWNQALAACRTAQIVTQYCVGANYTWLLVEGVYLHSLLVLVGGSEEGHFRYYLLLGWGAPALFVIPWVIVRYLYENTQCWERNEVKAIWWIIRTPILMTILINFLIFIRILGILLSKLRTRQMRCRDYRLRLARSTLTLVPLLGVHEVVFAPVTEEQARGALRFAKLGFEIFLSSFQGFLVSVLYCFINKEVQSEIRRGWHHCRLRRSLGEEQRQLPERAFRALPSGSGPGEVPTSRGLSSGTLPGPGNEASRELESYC
In words: cAMP pharmacological functional assay in presence of 0.1% casein, hGIPR. It is filed as cell-based. The settings on record: ratio of hGIPR to hGLP1R cAMP EC50 ratios.
As to “Y-Aib-EGTFTSDYSI-αMeL-LDEK((2-[2-(2-Amino-ethoxy)-ethoxy]-acetyl)2-(γGlu)-CO—(CH2)18—CO2H)AQ-Aib-AFIEYLLEGGPSSGAPPPS-NH2 (YXEGTFTSDYSIXLDEKAQXAFIEYLLEGGPSSGAPPPS; Aib, αMeL, lipidated Lys, C-terminal amide; (2)..(2) Xaa at position 2 is Aib; (13)..(13) Xaa at position 13 is alpha-methyl-Leu; MOD_RES (17)..(17) Lys at position 17 is chemically modified by conjugation of the epsilon-amino group of the Lys side chain with (2-[2-(2-amino-ethoxy)-ethoxy]-acetyl)2-(gamma-Glu)-CO-(CH2)18- CO2H; (20)..(20) Xaa at position 20 is Aib; MOD_RES (39)..(39) Ser at position 39 is amidated) [Peptide 66]”, the “[hGIPR/hGLP1R] EC50 Ratio” value amounted to 7.41.

As to “Y-Aib-EGTFTSDYSI-αMeL-LDEK((2-[2-(2-Amino-ethoxy)-ethoxy]-acetyl)2-(γGlu)-CO—(CH2)18—CO2H)AQ-αMeK-AFIEYLLE-Aib-GPSSGAPPPS-NH2 (Y[Aib]EGTFTSDYSI[αMeL]LDEK([AEEA-AEEA-γGlu-C20 diacid])AQ[αMeK]AFIEYLLE[Aib]GPSSGAPPPS-NH2; N-terminus assumed; SMILES CC[C@H](C)[C@H](NC(=O)[C@H](Cc1ccccc1)NC(=O)[C@H](C)NC(=O)[C@](C)(CCCCN)NC(=O)[C@H](CCC(N)=O)NC(=O)[C@H](C)NC(=O)[C@H](CCCCNC(=O)COCCOCCNC(=O)COCCOCCNC(=O)CC[C@H](NC(=O)CCCCCCCCCCCCCCCCCCC(=O)O)C(=O)O)NC(=O)[C@H](CCC(=O)O)NC(=O)[C@H](CC(=O)O)NC(=O)[C@H](CC(C)C)NC(=O)[C@](C)(CC(C)C)NC(=O)[C@@H](NC(=O)[C@H](CO)NC(=O)[C@H](Cc1ccc(O)cc1)NC(=O)[C@H](CC(=O)O)NC(=O)[C@H](CO)NC(=O)[C@@H](NC(=O)[C@H](Cc1ccccc1)NC(=O)[C@@H](NC(=O)CNC(=O)[C@H](CCC(=O)O)NC(=O)C(C)(C)NC(=O)[C@@H](N)Cc1ccc(O)cc1)[C@@H](C)O)[C@@H](C)O)[C@@H](C)CC)C(=O)N[C@@H](CCC(=O)O)C(=O)N[C@@H](Cc1ccc(O)cc1)C(=O)N[C@@H](CC(C)C)C(=O)N[C@@H](CC(C)C)C(=O)N[C@@H](CCC(=O)O)C(=O)NC(C)(C)C(=O)NCC(=O)N1CCC[C@H]1C(=O)N[C@@H](CO)C(=O)N[C@@H](CO)C(=O)NCC(=O)N[C@@H](C)C(=O)N1CCC[C@H]1C(=O)N1CCC[C@H]1C(=O)N1CCC[C@H]1C(=O)N[C@@H](CO)C(N)=O) [Peptide 22]”, the “[hGIPR/hGLP1R] EC50 Ratio” value came to 6.41.

On to “Y-Aib-EGTFTSDYSI-αMeL-LDEK((2-[2-(2-Amino-ethoxy)-ethoxy]-acetyl)2-(γGlu)-CO—(CH2)18—CO2H)AQ-αMeK-AFIEYLLEGGPSSGAPPPS-NH2 (Y[Aib]EGTFTSDYSI[αMeL]LDEK([AEEA-AEEA-γGlu-C20 diacid])AQ[αMeK]AFIEYLLEGGPSSGAPPPS-NH2; N-terminus assumed; SMILES CC[C@H](C)[C@H](NC(=O)[C@H](Cc1ccccc1)NC(=O)[C@H](C)NC(=O)[C@](C)(CCCCN)NC(=O)[C@H](CCC(N)=O)NC(=O)[C@H](C)NC(=O)[C@H](CCCCNC(=O)COCCOCCNC(=O)COCCOCCNC(=O)CC[C@H](NC(=O)CCCCCCCCCCCCCCCCCCC(=O)O)C(=O)O)NC(=O)[C@H](CCC(=O)O)NC(=O)[C@H](CC(=O)O)NC(=O)[C@H](CC(C)C)NC(=O)[C@](C)(CC(C)C)NC(=O)[C@@H](NC(=O)[C@H](CO)NC(=O)[C@H](Cc1ccc(O)cc1)NC(=O)[C@H](CC(=O)O)NC(=O)[C@H](CO)NC(=O)[C@@H](NC(=O)[C@H](Cc1ccccc1)NC(=O)[C@@H](NC(=O)CNC(=O)[C@H](CCC(=O)O)NC(=O)C(C)(C)NC(=O)[C@@H](N)Cc1ccc(O)cc1)[C@@H](C)O)[C@@H](C)O)[C@@H](C)CC)C(=O)N[C@@H](CCC(=O)O)C(=O)N[C@@H](Cc1ccc(O)cc1)C(=O)N[C@@H](CC(C)C)C(=O)N[C@@H](CC(C)C)C(=O)N[C@@H](CCC(=O)O)C(=O)NCC(=O)NCC(=O)N1CCC[C@H]1C(=O)N[C@@H](CO)C(=O)N[C@@H](CO)C(=O)NCC(=O)N[C@@H](C)C(=O)N1CCC[C@H]1C(=O)N1CCC[C@H]1C(=O)N1CCC[C@H]1C(=O)N[C@@H](CO)C(N)=O) [Peptide 21]”, for which the “[hGIPR/hGLP1R] EC50 Ratio” value stood at 4.85.

For “Y-Aib-EGTFTSDYSI-αMeL-LDKIAQ-Aib-AFIEYLIK((2-[2-(2-Amino-ethoxy)-ethoxy]-acetyl)2-(γGlu)-CO—(CH2)18—CO2H)GG-NH2 (YXEGTFTSDYSIXLDKIAQXAFIEYLIKGG; Aib, αMeL; K lipidated C20 diacid-γGlu-AEEA2; C-terminal amide; (2)..(2) Xaa at position 2 is Aib; (13)..(13) Xaa at position 13 is alpha-methyl-Leu; (20)..(20) Xaa at position 20 is Aib; MOD_RES (28)..(28) Lys at position 28 is chemically modified by conjugation of the epsilon-amino group of the Lys side chain with (2-[2-(2-amino-ethoxy)-ethoxy]-acetyl)2-(gamma-Glu)-CO-(CH2)18- CO2H; MOD_RES (30)..(30) Gly at position 30 is amidated) [Peptide 97]”, the “[hGIPR/hGLP1R] EC50 Ratio” value is reported as 3.56.

Take “Y-Aib-EGTFTSDYSI-αMeL-LDKK((2-[2-(2-Amino-ethoxy)-ethoxy]-acetyl)2-(γGlu)-CO—(CH2)18—CO2H)AQ-Aib-AFIEYLIEGG-NH2 (YXEGTFTSDYSIXLDKKAQXAFIEYLIEGG; Aib, αMeL; K lipidated C20 diacid-γGlu-AEEA2; C-terminal amide; (2)..(2) Xaa at position 2 is Aib; (13)..(13) Xaa at position 13 is alpha-methyl-Leu; MOD_RES (17)..(17) Lys at position 17 is chemically modified by conjugation of the epsilon-amino group of the Lys side chain with (2-[2-(2-amino-ethoxy)-ethoxy]-acetyl)2-(gamma-Glu)-CO-(CH2)18- CO2H; (20)..(20) Xaa at position 20 is Aib; MOD_RES (30)..(30) Gly at position 30 is amidated) [Peptide 62]”: the “[hGIPR/hGLP1R] EC50 Ratio” value is 5.03.

As for “Y-Aib-EGTFTSDYSI-αMeL-LDKK((2-[2-(2-Amino-ethoxy)-ethoxy]-acetyl)2-(γGlu)-CO—(CH2)18—CO2H)AQ-Aib-AFIEYLIEGGPSSGAPPPS-NH2 (YXEGTFTSDYSIXLDKKAQXAFIEYLIEGGPSSGAPPPS; Aib, αMeL; lipidated K; C-terminal amide; (2)..(2) Xaa at position 2 is Aib; (13)..(13) Xaa at position 13 is alpha-methyl-Leu; MOD_RES (17)..(17) Lys at position 17 is chemically modified by conjugation of the epsilon-amino group of the Lys side chain with (2-[2-(2-amino-ethoxy)-ethoxy]-acetyl)2-(gamma-Glu)-CO-(CH2)18- CO2H; (20)..(20) Xaa at position 20 is Aib; MOD_RES (39)..(39) Ser at position 39 is amidated) [Peptide 20]”, the “[hGIPR/hGLP1R] EC50 Ratio” value is recorded as 4.87.

In the case of “Y-Aib-EGTFTSDYSI-αMeL-LDSK((2-[2-(2-Amino-ethoxy)-ethoxy]-acetyl)2-(γGlu)-CO—(CH2)18—CO2H)AQ-Aib-AFIEYLIEGG-NH2 (YXEGTFTSDYSIXLDSKAQXAFIEYLIEGG; Aib, αMeL; K lipidated C20 diacid-γGlu-AEEA2; C-terminal amide; (2)..(2) Xaa at position 2 is Aib; (13)..(13) Xaa at position 13 is alpha-methyl-Leu; MOD_RES (17)..(17) Lys at position 17 is chemically modified by conjugation of the epsilon-amino group of the Lys side chain with (2-[2-(2-amino-ethoxy)-ethoxy]-acetyl)2-(gamma-Glu)-CO-(CH2)18- CO2H; (20)..(20) Xaa at position 20 is Aib; MOD_RES (30)..(30) Gly at position 30 is amidated) [Peptide 64]”, the “[hGIPR/hGLP1R] EC50 Ratio” value turned out to be 3.66.

As for “Y-Aib-EGTFTSDYSI-αMeL-LDSK((2-[2-(2-Amino-ethoxy)-ethoxy]-acetyl)2-(γGlu)-CO—(CH2)18—CO2H)AQ-Aib-AFIEYLIEGGPSSGAPPPS-NH2 (YXEGTFTSDYSIXLDSKAQXAFIEYLIEGGPSSGAPPPS; Aib, αMeL, lipidated Lys, C-terminal amide; (2)..(2) Xaa at position 2 is Aib; (13)..(13) Xaa at position 13 is alpha-methyl-Leu; MOD_RES (17)..(17) Lys at position 17 is chemically modified by conjugation of the epsilon-amino group of the Lys side chain with (2-[2-(2-amino-ethoxy)-ethoxy]-acetyl)2-(gamma-Glu)-CO-(CH2)18- CO2H; (20)..(20) Xaa at position 20 is Aib; MOD_RES (39)..(39) Ser at position 39 is amidated) [Peptide 52]”, the “[hGIPR/hGLP1R] EC50 Ratio” value was found to be 2.72.
